Molecular target: T1, 寨卡病毒包膜蛋白的结构域III (ZIKV-EDⅢ抗原) (Zika virus (strain NCBI KU740184.2))
T1 construct: domain: 结构域III (EDIII); also called ZIKV-EDIII; ZIKV EDIII
Test: SPR (OpenSPR, COOH chip), ZIKV-EDIII immobilised, nanobody as analyte, 1:1 model

B1: 纳米抗体Nb-E5 (VHH)
VHH: SDSEVNQEAKPEVKPEVKPETHINLKVSDGSSEIFFKIKKTTPLRRLMEAFAKRQGKEMDSLRFLYDGIRIQADQTPEDLDMEDNDIIEAHREQIGGMAVQLVESGGGLVQPGGSLRLSCKVSGRPFTTYALGWFRQAPGKEREFLTVGAWRGQIFTAESVRGRFTISLDTAKNTFDLQMNSLNIEDTAVYYCAAGSRSSNTPQADPGSFDYWGQGTQVTVSSGAR
notes: no removal of the tag is told, and detection used anti-SMT3 / anti-His antibodies; From a naive alpaca phage library; not shown: 6×His tag at the N-terminus of SUMO (pET-28a-SUMO vector)
Kd: 8.22 nM

From patent CN116063469A (UNIV ZHONGSHAN, dated 2023)
